# Measurements from the nanobody polyreactivity screen of Harvey et al. (2022).
# Experiment: yeast display, Sf9 membrane polyspecificity reagent, FACS + sequencing; frameworks hold sequencing errors
# Outline: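 In a synthetic yeast display library (Saccharomyces cerevisiae BJ5465), nanobody expression was induced with galactose for 36–48 hours. FACS gates were set low and high (top ~1%) using anti-HA fluorescence for expression and streptavidin fluorescence for binding of the Sf9 membrane reagent. Each polyreactivity label is drawn from the gate of origin.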
row,Sequence,polyreactivity (PSR sort gate)
1,QVQLVESGGGLDQAGGSLRLSCAASGFIYSWYAMGWYRQAPGKERELVAAISSSGVSTYYADSVKGRFTISRDNAKNTVYLQMNSLKPEDTAVYYCNAYGSVWDRGEYDYEYWGQGTQVTVSS,low polyreactivity
2,QVQLVESGGGLVQAGGSLRLSFAASGSTFTINAMGWYRPAPGKERELVAAINDGHDTYYADSVKGRFTISRDNAKNTVYLQMNSLKPEDTAVYFCAADIIYGYEVYTYTSDYWGQGTQVTVSS,low polyreactivity
3,QVQLVESGGGLVQAGGSLRLSCAASGSTFYTYVMGWYRQAPGKERELVAAISSGGGNTYYADTVTGRFTISRDHGKNTVYLQMNSLKPEDTAVYYCAAETFRWSDYDYWGQGTQVTVSS,high polyreactivity
4,QVQLVESGGGLVQAGGSLRLSCAASGYTFSPNDMGWYRQAPGKERELVAAITSSVGSTYYADSVKGRFTISRDNAKNTVYLQLNSLKPEDTAVYYCNKQDSSYYISGGGDYDYWGQGTQVTVSS,low polyreactivity
5,QVQLVESGGGLVQAGGSLRLSCAASGIIFSINAMGWYRQAPGKERELVAAISRSGGSTNYADSVKGRFTISRDNAKNTVYLQMNSLKPEDTAVYYCATVHRYSVWSHNYWGQGTQVTVSS,high polyreactivity
6,QDQLVDSGGGLVQAGGSLRLSCAPSGSTIYPNAKGWTRQAPGKERELVAGISSGGGTYYADSVKGRFTISRDNAKNTVYLQMNSLKPEDTAVYYCNAYFLSSCLDYLGQGTQVTVSS,low polyreactivity
7,QVQLVESGGGLVQAGGSLRLSCAASGFTFKYNVMGWYRQAPGKERELVAAISKRGGNTYYADSVKGRFTISRDNAKNTVYLQMNSLKPEDTAVYYCAADPTSPETSGQGYDYWGQGTQVTVSS,high polyreactivity
8,QVQLVESGGGLVQAGGSLRLSCAASGRIFLVNAMGWYRQAPGKEREFVAAITDNPGSTYYADSVKGRFTISRDNAKNTVYLQMNSLKPEDTAVYYCAKQRGNKRIGYDSWGQGTQVTVSS,low polyreactivity
9,QVQLVESGGGLVQAGGSLRLSCAASGRIFRGYAMGWYRQAPGKERELVAGISSGDNTYYADSVKGRFTISRDNAKNTVYLQMNSLKPEDTAVYYCNADHVYAVDYDYWGQGTQVTVSS,low polyreactivity
10,QVQLVDSGGGLVQAGGSLRLSCAASGRTFGRYTMGWYRQAPGKERELVAAITYSGGSTYYADSVKGRFTISRDNAKNTVYLQMNSLKPEDTAVYYCAAEWVYDWYRYGYWGQGTQVTVSS,low polyreactivity
11,QVQLVESGGGLVQAGGSLRLSCAASGFTFFHYAMGWYRQAPGKERELVAAINTRGSRTYYADSVKGRFTISRDNAKNTVYLQMNSLKPEDTAVYYCAADSVQVYAWQYYYWGQGTQVTVSS,high polyreactivity
12,QVQLVESGGGLVQAGGSLRLSCAASGITFWANAMGWERQAPGKERELVASIRSSGGSTYYADSVKGRFTISRDNAKNTVYLQMYSLKPEDTAVYYCYAKRTGPWFLHVPVYYWGQGTQVTVSS,low polyreactivity
13,QVQLVESGGGLVQAGGSLRLSCAASGSPFGDSAMGWYRQAPGKERELVAAISVYGASTYYADSVKGRFTISRDNAKNTVYLHMNSLKPEDTEVYYCAATYDTIGDSWGQGTQVTVSS,low polyreactivity
14,QVQLVESGGGLVQAGRSLRLSCAASGRIFRYNTMGWYRQAPGKERELVARINRGGSTNYADSVKGRFTISRDNAKNTVYLQMNSLKAEDTAVYYCNARYTARHYPFSNFDYWGQGTQVTVSS,high polyreactivity
15,QVQLVESGGGIVQAGGSLRLSCAASGSTFRGNDMGWYRQAPGKERELVASIDWSGGSTYYADSVKGRFTISRDNAKNTVYLQMNSLKPEDTAVYYCAADTSYWYDYYIDYVGYYYWGQGTQVTVAS,high polyreactivity
16,QVQLVESGGGLFQAGGSLRLSCAASGFIFYDNAIGWYRQAPGKERELVASISVSGGSTYYADSVKGRFTISRDKAKNTVYLHMNSLKAEDTAVYYCAASYRDGHIRHDYWGQGTQVTVSS,low polyreactivity
17,QDQLVESAGGLVQAGGSLRLSCAASGNTFSTNPLGSYRQAAGKERELVATISRNGGSTSYAVSVKGRFTISRDNAKNSDYLKMYSLKAEDTAVYYCAARSVRPGPFSDDYWGQGTQVTVSS,low polyreactivity
18,QVQLVESGGGLVQAGGSLRLSCAASGRIFVVYTMRWYRQAPGNERELVASIRGSGDSTNYADSVKGRFTISRDNAKNTVYLQMNSLKPEDTAVYYCAADLPWSRRYSYRYGYWGQGTQVTVSS,low polyreactivity
19,QVQLVESGGGLVQAGGSLRLSCAASGRNFIDYMGWYRQAPGKERELVAAIDSGASTYYADSVKGRFTISRDNAKNTVYLQMNSLNPEDTAVYYCAADVVYDYGGMDYWGQGTLVTVSS,low polyreactivity
20,QVQIVESGGGLVQAGGSLSLSCADYGSTFYHNVMGWYRQAPGKERELVASIDTGDSTNYADSVKGRFTISRDNAKNTVYLQMNSLKPEYTAVYYCNADSYPALNKRGYDYWGQGTQVTVSS,low polyreactivity
21,QVQLVESGGGLVQAGGSLRLSCAASGSTFYPYAMGWYSQAPGKERELVAAISSGGSTSYADSVKGRFTISRDNAKNTVYLQMNSLKPEDTAVYYCNASSPGAVPVYDYDYWGQGTQVTVSS,low polyreactivity
22,QDQLVESGAGLVQAGGSLRLSCAASGRTFAYNAMGWYRQAPGKERELVASITSGGSTNYADSVKGRFTISRDNAKNTVYLQMNCLKPEDTAVYYCNKDGKYHRVLYDYWGQGTQVTVSS,low polyreactivity

row,Sequence,polyreactivity (PSR sort gate)
1,QVQLVESGGGLVQAGGSLRLSCAASGLIFRVNAMGWYRQAPGKERELVASISVSGGSTYYADSVKGRFTISRDNAKNTVYLQMNSLKPEDTAVYYCAASQYHKGYLFSYPYEYDYWGQGTQVTVSS,low polyreactivity
2,QVQLVESGGGLVQAGGSLRLSCAASGRTFVSNDMGWYRQAPGKERELVATISSGASTYYADSVKGRFTISRDNAKNTVYLQMNSLKPEDTAVYYCAAEVLVFGGGYDYWGQGTQVTVSS,low polyreactivity
3,QVQLVESGGGLVQAGGSLRLSCAASGFTFGRYAMGWYRQAPGKERELVATITRSGVNTYYADSVKGRFTISRDNAKNTVYLQMNSLKPEDTAVYYCAAVEIWYWGFTQYEYWGQGTQVTVSS,high polyreactivity
4,QVQLVESGGGLVQAGGSLRLSCAASGFTFTTYAMGWYRQAPGKERELVARISRRSGSTYYADSVKGRFTISRDNAKNTVYLQMNSLKPEDTAVYYCNADVDRSTTIFDYWGQGTQVTVSS,high polyreactivity
5,QVQLVESGGGLVQAGGSLRLTCAASGSTFYIYAMGWYRQAPGKERELVARISGSGGSTYYADSVKGRFTISRDNAKNTVYLQMNSLKPEDTAVYYCAADDIYKYYQYYAFPYYRYDYWGQGTQVTVSS,low polyreactivity
6,QVQLVESGGGLVQAGGILRLSCAASGILVYNAMGWYIQAPGTERVLVAAISARGGRTYYADSVKGRFTISRDNAKNTVNLQMNSLKPEDTPVYYCATLETTGVNYWGQGTQVTVSS,high polyreactivity
7,QVQLVESGGGLVQAGGSLRLSCAASGSTFGFNPMGWYRQAPGKERELVAAITGSGGSTYYADSVKGRFTISRDNAKNTVYLQMNSLKPEDTAVYYCARETYGDYVHYDYWGQGTQVTVSS,low polyreactivity
8,QVQLVESGGGLVPARGSLRLSCAASGRIFRYYAMGWYRQAPGKERELVAAISGNGGRTSYADSVKGRFTISRDNAKITVSLQMTSLKPEDTAVYYCNAASVNGCRDFDYWGQGTQVTVSS,high polyreactivity
9,QVQLVESGGGLVQAGGSLRLSCAASGYTFQTNTMGWYRQAPGKERELVAAITDGDSTNYADSVKGRFTISRDNAKNTVYLQMNSLKPEDTAVYYCAAQYYYSEAGMDYWGQGTQVTVSS,low polyreactivity
10,QVQLVESGGGLVQAGGSLRLSCAASGSTFGVNAMGWYRQAPGKERELVAAISVSGGRTYYADSVKGRFTISRDNAKNTVYLLMNSLKPEDTAVYYCAATTYIWPYDYWGQGTQVTVSS,low polyreactivity
11,QVQLVKSGGGLVQAGGSLRLSCAASGIIFTDYGMGWYRQAPGKERELVAVISRGGTTKYADSVKGRFTISRDNAKNTVYLQMNSLQPEDTAVYYCAARTWAGRWYGLDFWGQGTQVTVSS,high polyreactivity
12,QVQLVESGGGLVQAGGSLRLSCAASGSTILSNAMGWYRQAPGKERELVARITSGGSTHYADSVKGRFTISRDNAKNTVYLQMNSLKPEDTAVYYCNADYWFVEYDYWGQGTQVTVSS,low polyreactivity
13,QVQLVESGGGLVQAGGSLRLSCAASGLTFVDYAMGWYRQAPGKERELVASIDYSGSSTYYADSVKGRFTISRDNAKNTVYLQMNSLKPEDTAVYYCAATDSGEYWGQGTQVTVSS,low polyreactivity
14,QVQLVESGGGLVQAGGSLRLSCAASGRTLLLNTMGWYRQAPGKERELFAAISWRDGSTYYADSVKRRFTISRDNAKITVYLQMNSLIPEDTAVYYCNARLSGRSPYDLRFDYWGQGTQVTVSS,low polyreactivity
15,QVQLVESGGCLVQAGGSLRLSCSTSGSTFAVYVMGWSRQAPGKERELVAAISTSGARTYYADSVKGRFTISRDNAKNTDYLQMNSLKPEDTAVYYCAARGIYKSKYDYWGQGTQVSVSS,high polyreactivity
16,QVQLVESGGGLVQAGGSLRLSCAASGNTFWGNAMGWYIQAPGKERELVAAITSGGNTNYADSVKGRFTISRDNAKNTVYLQMNSLKPEDTAVYYCNVDLKAWLPDGGSVDYWGQGTQVTVSS,low polyreactivity
17,QVQLVESVGGLVQAGGSLRLSCAASGGIFWVYAMGWYRQAPGKERELVADISIADSTNYADSVKGRFTISRDNAKNTVYLQMNSLKPEDTAVYYCNAVPSQHDEFDYWGQGTQVTVSS,low polyreactivity
18,QVQLVESGGGLVQAGGSLRLSCAASGRIFYYAMGWYRQAPGKEREFVAAISGSGGSTNYADSVKGRFTISRDNAKNTVYLQMNSLKPEDTAVYYCNAESWSWGFIYEYEYWGQGTQVTVSW,high polyreactivity
19,QVQLVESGGGLVQAGGSLRLSCAASGFIFGRYAMGWYRQAPGKERELVAAITWSGGRTYYADSVKGRFTISRDNAKNTVFLQMNSLKPEDTAVYYCNAQGYTTYRGDYWGQGTQVTVSS,high polyreactivity
20,QVQLVESGGGLVQAGGSLRLSCAASGSILGYYAMGLYRQAPGKERELVAAISGRGGSTYYADSLKGRFTISRDNAKNTVYLQMNSLKPEDTAVYYCAKRSVWRGWGQGTQVTVSS,high polyreactivity
21,QVQLVESGGGLVQAGGSLSLSCAASGIIFYDYAMGWYRQAPGKERELVAAITSGGSTNYADSVKGRFTISRDNAKNTVYLLMNRLKPEVTAVYYCAATYWSWISLRFYWGLGTQVTVSS,low polyreactivity
